Data reported in the supplement of paper PMC10567573.

B1: TEKT4 (parent)
chain: SEVEELNMSLTALREKLLEAEQSL
B2: CAMK2A (parent)
chain: CIQQILEAVLHCHQMGVVHRDLKP

Variants of: B1
Test: protein stability index of a GFP-peptide fusion (GPS, HEK-293T) (PSI 1-6); higher = more stable
Conditions: c terminus: a fixed tail appended
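Note: lentivirally expressed fusions sorted by FACS into six bins by GFP to DsRed ratio, PSI derived from sequencing read proportions per bin multiplied by bin number.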

Variant	protein stability index
SEVEELNMSLTALRIKLLEAEQSL	2.62
SEVEELNMSLTALRGKLLEAEQSL	3.04
SEVEELNMSLTALRTKLLEAEQSL	2.44
SEVEELNMSLTALRYKLLEAEQSL	2.15
SEVEELNMSLTALRHKLLEAEQSL	2.94
SEVEELNMSLTALRMKLLEAEQSL	2.18
SEVEELNMSLTALRNKLLEAEQSL	2.54
SEVEELNMSLTALRSKLLEAEQSL	2.27
SEVEELNMSLTALRWKLLEAEQSL	1.59
SEVEELNMSLTALRRKLLEAEQSL	3.11
SEVEELNMSLTALRVKLLEAEQSL	2.3
SEVEELNMSLTALRKKLLEAEQSL	3.38
SEVEELNMSLTALRPKLLEAEQSL	3.76
SEVEELNMSLTALRQKLLEAEQSL	2.52
SEVEELNMSLTALRLKLLEAEQSL	2.1
SEVEELNMSLTALREKLCEAEQSL	4.07
SEVEELNMSLTALREKLTEAEQSL	4.54
SEVEELNMSLTALREKLREAEQSL	3.67
SEVEELNMSLTALREKLGEAEQSL	4.45
SEVEELNMSLTALREKLSEAEQSL	4.65
SEVEELNMSLTALREKLNEAEQSL	4.11
SEVEELNMSLTALREKLPEAEQSL	5.43
SEVEELNMSLTALREKLIEAEQSL	2.39
SEVEELNMSLTALREKLFEAEQSL	3.32

Variant	protein stability index
SEVEELNMSLTALREKLYEAEQSL	3.92
SEVEELNMSLTALREKLDEAEQSL	5.37
SEVEELNMSLTALREKLWEAEQSL	2.86
SEVEELNMSLTALREKLMEAEQSL	2.71
SEVEELNMSLTALREKLVEAEQSL	3.94
SEVEELNMSLTALREKLQEAEQSL	4.23
SEVEELNMSLTALREKLHEAEQSL	3.84
SEVEELNMSLTALREKLKEAEQSL	4.74
SEVEELNMSLTALREKLEEAEQSL	5.08
SEVEELNMSLTALREKLLLAEQSL	2.39
SEVEELNMSLTALREKLLFAEQSL	2.24
SEVEELNMSLTALREKLLKAEQSL	3.97
SEVEELNMSLTALREKLLTAEQSL	3.6
SEVEELNMSLTALREKLLPAEQSL	4.07
SEVEELNMSLTALREKLLAAEQSL	2.69
SEVEELNMSLTALREKLLHAEQSL	3.26
SEVEELNMSLTALREKLLRAEQSL	2.78
SEVEELNMSLTALREKLLSAEQSL	3.41
SEVEELNMSLTALREKLLNAEQSL	3.71
SEVEELNMSLTALREKLLCAEQSL	3.04
SEVEELNMSLTALREKLLQAEQSL	2.36
SEVEELNMSLTALREKLLVAEQSL	3.66
SEVEELNMSLTALREKLLDAEQSL	3.49
SEVEELNMSLTALREKLLGAEQSL	3.95

Variant	protein stability index
SEVEELNMSLTALREKLLYAEQSL	2.62
SEVEELNMSLTALREKLLWAEQSL	2.26
SEVEELNMSLTALREKLLIAEQSL	2.31
SEVEELNMSLTALREKLLMAEQSL	2.92
SEVEELNMSLTALREKLLECEQSL	4
SEVEELNMSLTALREKLLEGEQSL	4.88
SEVEELNMSLTALREKLLEDEQSL	4.72
SEVEELNMSLTALREKLLETEQSL	4.26
SEVEELNMSLTALREKLLEREQSL	4.28
SEVEELNMSLTALREKLLESEQSL	4.18
SEVEELNMSLTALREKLLEEEQSL	5.04
SEVEELNMSLTALREKLLELEQSL	3.98
SEVEELNMSLTALREKLLEWEQSL	2.95
SEVEELNMSLTALREKLLENEQSL	4.52
SEVEELNMSLTALREKLLEYEQSL	3.88
SEVEELNMSLTALREKLLEVEQSL	4.41
SEVEELNMSLTALREKLLEQEQSL	4.32
SEVEELNMSLTALREKLLEHEQSL	3.93
SEVEELNMSLTALREKLLEMEQSL	3.73
SEVEELNMSLTALREKLLEPEQSL	4.76
SEVEELNMSLTALREKLLEKEQSL	4.9
SEVEELNMSLTALREKLLEFEQSL	3.79
SEVEELNMSLTALREKLLEIEQSL	3.55
SEVEELNMSLTALREHLLEAEQSL	2.83

Variant	protein stability index
SEVEELNMSLTALREVLLEAEQSL	3.11
SEVEELNMSLTALREELLEAEQSL	3.19
SEVEELNMSLTALREYLLEAEQSL	2.67
SEVEELNMSLTALRETLLEAEQSL	2.83
SEVEELNMSLTALRECLLEAEQSL	3.24
SEVEELNMSLTALREMLLEAEQSL	2.26
SEVEELNMSLTALREWLLEAEQSL	3.27
SEVEELNMSLTALRERLLEAEQSL	3.06
SEVEELNMSLTALRENLLEAEQSL	1.72
SEVEELNMSLTALREPLLEAEQSL	5.38
SEVEELNMSLTALREQLLEAEQSL	2.83
SEVEELNMSLTALREGLLEAEQSL	3.58
SEVEELNMSLTALREILLEAEQSL	2.92
SEVEELNMSLTALRELLLEAEQSL	2.85
SEVEELNMSLTALREFLLEAEQSL	1.99
SEVEELNMSLTALREDLLEAEQSL	4.25
SEVEELNMSLTALREALLEAEQSL	3.42
SEVEELNMSLTALRESLLEAEQSL	3.74
SEVEELNMSLTALREKLLEAEQSR	4.23
SEVEELNMSLTALREKLLEAEQSI	3.1
SEVEELNMSLTALREKLLEAEQSM	4.18
SEVEELNMSLTALREKLLEAEQSE	4.69
SEVEELNMSLTALREKLLEAEQSH	4.41
SEVEELNMSLTALREKLLEAEQSC	3.82

Variant	protein stability index
SEVEELNMSLTALREKLLEAEQSW	3.74
SEVEELNMSLTALREKLLEAEQSN	4.97
SEVEELNMSLTALREKLLEAEQSD	5.19
SEVEELNMSLTALREKLLEAEQSG	5.01
SEVEELNMSLTALREKLLEAEQSK	5.14
SEVEELNMSLTALREKLLEAEQSV	2.25
SEVEELNMSLTALREKLLEAEQSF	4.51
SEVEELNMSLTALREKLLEAEQSS	4.63
SEVEELNMSLTALREKLLEAEQSY	3.82
SEVEELNMSLTALREKLLEAEQSP	4.99
SEVEELNMSLTALREKLLEAEQST	4.97
SEVEELNMSLTALREKLLEAEQSQ	4.78
SEVEELNMSLTALREKLLEAEQSA	4.18
SEVEELNMSLTALREKLLEAEGSL	3.6
SEVEELNMSLTALREKLLEAEYSL	1.94
SEVEELNMSLTALREKLLEAEHSL	2.5
SEVEELNMSLTALREKLLEAEISL	1.72
SEVEELNMSLTALREKLLEAEWSL	1.89
SEVEELNMSLTALREKLLEAESSL	3.44
SEVEELNMSLTALREKLLEAEVSL	2.23
SEVEELNMSLTALREKLLEAEASL	2.81
SEVEELNMSLTALREKLLEAEKSL	3.36
SEVEELNMSLTALREKLLEAEDSL	2.48
SEVEELNMSLTALREKLLEAEMSL	1.91

Variant	protein stability index
SEVEELNMSLTALREKLLEAEFSL	1.75
SEVEELNMSLTALREKLLEAENSL	2.54
SEVEELNMSLTALREKLLEAELSL	1.96
SEVEELNMSLTALREKLLEAEPSL	3.99
SEVEELNMSLTALREKLLEAECSL	2.37
SEVEELNMSLTALREKLLEAEESL	3.37
SEVEELNMSLTALREKLLEAERSL	2.64
SEVEELNMSLTALREKLLEAETSL	3.64
SEVEELNMSLTALREKPLEAEQSL	5.42
SEVEELNMSLTALREKCLEAEQSL	4.21
SEVEELNMSLTALREKHLEAEQSL	5.01
SEVEELNMSLTALREKDLEAEQSL	5.26
SEVEELNMSLTALREKKLEAEQSL	5.36
SEVEELNMSLTALREKMLEAEQSL	2.51
SEVEELNMSLTALREKVLEAEQSL	4.45
SEVEELNMSLTALREKQLEAEQSL	4.98
SEVEELNMSLTALREKFLEAEQSL	3.69
SEVEELNMSLTALREKELEAEQSL	5.46
SEVEELNMSLTALREKALEAEQSL	5.53
SEVEELNMSLTALREKTLEAEQSL	5.16
SEVEELNMSLTALREKGLEAEQSL	5.38
SEVEELNMSLTALREKILEAEQSL	4.28
SEVEELNMSLTALREKSLEAEQSL	4.9
SEVEELNMSLTALREKYLEAEQSL	4.05

Variant	protein stability index
SEVEELNMSLTALREKWLEAEQSL	3.41
SEVEELNMSLTALREKRLEAEQSL	3.69
SEVEELNMSLTALREKNLEAEQSL	4.89
SEVEELNMSLTALREKLLEAEQML	2.74
SEVEELNMSLTALREKLLEAEQHL	2.31
SEVEELNMSLTALREKLLEAEQTL	2.77
SEVEELNMSLTALREKLLEAEQQL	2.72
SEVEELNMSLTALREKLLEAEQCL	2.39
SEVEELNMSLTALREKLLEAEQNL	3.21
SEVEELNMSLTALREKLLEAEQLL	2.37
SEVEELNMSLTALREKLLEAEQDL	3.36
SEVEELNMSLTALREKLLEAEQKL	3.17
SEVEELNMSLTALREKLLEAEQGL	3.66
SEVEELNMSLTALREKLLEAEQYL	2.33
SEVEELNMSLTALREKLLEAEQEL	3.93
SEVEELNMSLTALREKLLEAEQFL	2.48
SEVEELNMSLTALREKLLEAEQRL	2.9
SEVEELNMSLTALREKLLEAEQIL	2.74
SEVEELNMSLTALREKLLEAEQVL	2.87
SEVEELNMSLTALREKLLEAEQPL	4.45
SEVEELNMSLTALREKLLEAEQAL	2.47
SEVEELNMSLTALREKLLEAEQWL	2.75
SEVEELNMSLTALREKLLEAWQSL	2.36
SEVEELNMSLTALREKLLEATQSL	2.97

Variant	protein stability index
SEVEELNMSLTALREKLLEAYQSL	2.77
SEVEELNMSLTALREKLLEAVQSL	2.36
SEVEELNMSLTALREKLLEAQQSL	3.44
SEVEELNMSLTALREKLLEAIQSL	2.06
SEVEELNMSLTALREKLLEAFQSL	2.62
SEVEELNMSLTALREKLLEAAQSL	2.8
SEVEELNMSLTALREKLLEAGQSL	3.51
SEVEELNMSLTALREKLLEAKQSL	3.42
SEVEELNMSLTALREKLLEAPQSL	2.45
SEVEELNMSLTALREKLLEAHQSL	3.06
SEVEELNMSLTALREKLLEACQSL	2.23
SEVEELNMSLTALREKLLEADQSL	4.83
SEVEELNMSLTALREKLLEALQSL	2.81
SEVEELNMSLTALREKLLEAMQSL	3.16
SEVEELNMSLTALREKLLEANQSL	3.34
SEVEELNMSLTALREKLLEARQSL	3.26
SEVEELNMSLTALREKLLEASQSL	2.94

Variants of: B2
Test: as above
Conditions: c terminus: a fixed tail appended

Variant	protein stability index
HIQQILEAVLHCHQMGVVHRDLKP	1.56
FIQQILEAVLHCHQMGVVHRDLKP	3.55
DIQQILEAVLHCHQMGVVHRDLKP	2.12
